From the supplement of paper PMC10724198
± gives the standard deviation of the averaged measurements.
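Further: PSI is a weighted mean of sequencing reads over stability bins, variants kept only with over 10 reads, mCherry proximal and sfGFP distal, peptide attached via GGGS linker.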

These sequences were tested on Saccharomyces cerevisiae (assay: protein stability index of tFT-peptide fusion (C-terminal peptide) (PSI (0-1 scale)); higher = more stable (slower turnover)). Details: genetic background: das1 deletion; temperature: 37 C.
Protocol: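 MPS profiling in S. cerevisiae of the tFT-X12 degron library: putative degron peptides plus stable controls, 12 aa, fused to the C-terminus of a sfGFP-mCherry timer. Cells are FACS-sorted into 8 mCherry/sfGFP bins and deep-sequenced. PSI runs from 0 (unstable) to 1 (stable). Backgrounds are wild type, das1Δ and doa10Δ at 30 °C, and wild type, das1Δ, cdc34-1 and cdc53-1 at 37 °C; 2-3 technical replicates each.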
SLLLLSLCRFVG was tested, and the protein stability index was 0.702 ± 0.023. SLPIFSGVASVR showed a protein stability index of 0.778 ± 0.0013. Work on SLSCYSFFVLAL yielded a protein stability index of 0.534 ± 0.0054. Sequence SLVIVLPALIFL has a protein stability index of 0.569 ± 0.014. With SPAIRAILAPAG the protein stability index was 0.546 ± 0.0073. SPLASLRFWCFC was tested, and the protein stability index was 0.778 ± 0.018. For SPPPLFLIVLHL, the protein stability index was 0.639 ± 0.012. In the case of SRCLALVICYRV, the protein stability index is reported as 0.5979 ± 0.0043. Sequence SRGKMTIVSNQI has a protein stability index of 0.7389 ± 0.0072. With SRGLVPMANRYC the protein stability index was 0.741 ± 0.018. For SRPGRWRLYYVS, the protein stability index was 0.758 ± 0.011. SRSVLLCFCWLC showed a protein stability index of 0.5256 ± 0.0042. SVFCSLFLFLFY showed a protein stability index of 0.5568 ± 0.0013. For SVGCCLLCFFVL, the protein stability index was 0.5645 ± 0.0043. Sequence SWMSQFSILLTA has a protein stability index of 0.23 ± 0.0046. In the case of SYVLLQSYVSLV, the protein stability index is reported as 0.643 ± 0.016. TCVTLRYRLTFE was tested, and the protein stability index was 0.667 ± 0.043. In the case of TFLFPLPFLFFI, the protein stability index is reported as 0.119 ± 0.03. TFRPWPLHILAL gave a protein stability index of 0.325 ± 0.0089. For THRAVGIGLRCC, the protein stability index was 0.645 ± 0.0067. For TIRKCIIKWIKI, the protein stability index was 0.596 ± 0.029. Sequence TKDFVIKKTKIS has a protein stability index of 0.737 ± 0.022. Sequence TLDWKFGRGGIG has a protein stability index of 0.406 ± 0.017. TVLGRDFALSVC was tested, and the protein stability index was 0.543 ± 0.015. TVYMVIRVIVWG showed a protein stability index of 0.246 ± 0.0077. TYCFRVCAWRAN gave a protein stability index of 0.677 ± 0.012. In the case of VACLRLTVYVMG, the protein stability index is reported as 0.231 ± 0.0037. VASYVCIGVVWV was tested, and the protein stability index was 0.497 ± 0.025. Work on VCFLCIWLYSED yielded a protein stability index of 0.4305 ± 0.004. Work on VCLFFFGYWCCL yielded a protein stability index of 0.566 ± 0.0067. Sequence VCLFRLVVFFPV has a protein stability index of 0.426 ± 0.037. For VCLLFRFCCWFW, the protein stability index was 0.461 ± 0.02. For VCTFLLVSFFLS, the protein stability index was 0.423 ± 0.012.

Same assay, conditions: genetic background: doa10 deletion; temperature: 30 C
In the case of SLLLLSLCRFVG, the protein stability index is reported as 0.194 ± 0.02. For SLPIFSGVASVR, the protein stability index was 0.642 ± 0.043. In the case of SLSCYSFFVLAL, the protein stability index is reported as 0.391 ± 0.014. SLVIVLPALIFL was tested, and the protein stability index was 0.408 ± 0.0052. With SPAIRAILAPAG the protein stability index was 0.402 ± 0.014. Work on SPLASLRFWCFC yielded a protein stability index of 0.335 ± 0.01. With SPPPLFLIVLHL the protein stability index was 0.4 ± 0.021. Work on SRCLALVICYRV yielded a protein stability index of 0.152 ± 0.016. Work on SRGKMTIVSNQI yielded a protein stability index of 0.642 ± 0.011. SRGLVPMANRYC was tested, and the protein stability index was 0.142 ± 0.0075. SRPGRWRLYYVS gave a protein stability index of 0.38 ± 0.023. Sequence SRSVLLCFCWLC has a protein stability index of 0.27 ± 0.0089. In the case of SVFCSLFLFLFY, the protein stability index is reported as 0.414 ± 0.026. SVGCCLLCFFVL was tested, and the protein stability index was 0.339 ± 0.029. Sequence SWMSQFSILLTA has a protein stability index of 0.1535 ± 0.00097. SYVLLQSYVSLV was tested, and the protein stability index was 0.318 ± 0.016. TCVTLRYRLTFE was tested, and the protein stability index was 0.585 ± 0.04. In the case of TFLFPLPFLFFI, the protein stability index is reported as 0.29 ± 0.014. TFRPWPLHILAL showed a protein stability index of 0.15 ± 0.0036. THRAVGIGLRCC showed a protein stability index of 0.165 ± 0.01. TIRKCIIKWIKI showed a protein stability index of 0.174 ± 0.0094. Work on TKDFVIKKTKIS yielded a protein stability index of 0.135 ± 0.03. Sequence TLDWKFGRGGIG has a protein stability index of 0.33 ± 0.0094. For TVLGRDFALSVC, the protein stability index was 0.308 ± 0.0071. With TVYMVIRVIVWG the protein stability index was 0.0909 ± 0.023. Work on TYCFRVCAWRAN yielded a protein stability index of 0.176 ± 0.0011. VACLRLTVYVMG was tested, and the protein stability index was 0.101 ± 0.009. Sequence VASYVCIGVVWV has a protein stability index of 0.262 ± 0.0045. VCFLCIWLYSED gave a protein stability index of 0.218 ± 0.017. VCLFFFGYWCCL showed a protein stability index of 0.493 ± 0.017. With VCLFRLVVFFPV the protein stability index was 0.196 ± 0.02. In the case of VCLLFRFCCWFW, the protein stability index is reported as 0.331 ± 0.025. Sequence VCTFLLVSFFLS has a protein stability index of 0.186 ± 0.019.

Same assay, conditions: genetic background: wild type; temperature: 30 C
In the case of SLLLLSLCRFVG, the protein stability index is reported as 0.232 ± 0.036. Work on SLPIFSGVASVR yielded a protein stability index of 0.649 ± 0.035. SLSCYSFFVLAL gave a protein stability index of 0.401 ± 0.025. For SLVIVLPALIFL, the protein stability index was 0.401 ± 0.024. SPAIRAILAPAG showed a protein stability index of 0.43 ± 0.036. In the case of SPLASLRFWCFC, the protein stability index is reported as 0.349 ± 0.028. SPPPLFLIVLHL was tested, and the protein stability index was 0.371 ± 0.048. Work on SRCLALVICYRV yielded a protein stability index of 0.185 ± 0.024. SRGKMTIVSNQI was tested, and the protein stability index was 0.669 ± 0.016. SRGLVPMANRYC was tested, and the protein stability index was 0.16 ± 0.02. SRPGRWRLYYVS showed a protein stability index of 0.383 ± 0.022. SRSVLLCFCWLC gave a protein stability index of 0.264 ± 0.014. SVFCSLFLFLFY was tested, and the protein stability index was 0.388 ± 0.01. Sequence SVGCCLLCFFVL has a protein stability index of 0.351 ± 0.029. Sequence SWMSQFSILLTA has a protein stability index of 0.167 ± 0.031. Sequence SYVLLQSYVSLV has a protein stability index of 0.352 ± 0.029. With TCVTLRYRLTFE the protein stability index was 0.522 ± 0.025. In the case of TFLFPLPFLFFI, the protein stability index is reported as 0.0685 ± 0.02. TFRPWPLHILAL showed a protein stability index of 0.166 ± 0.026. With THRAVGIGLRCC the protein stability index was 0.186 ± 0.022. Sequence TIRKCIIKWIKI has a protein stability index of 0.189 ± 0.036. TKDFVIKKTKIS showed a protein stability index of 0.159 ± 0.03. In the case of TLDWKFGRGGIG, the protein stability index is reported as 0.338 ± 0.01. In the case of TVLGRDFALSVC, the protein stability index is reported as 0.346 ± 0.023. For TVYMVIRVIVWG, the protein stability index was 0.102 ± 0.032. For TYCFRVCAWRAN, the protein stability index was 0.208 ± 0.026. In the case of VACLRLTVYVMG, the protein stability index is reported as 0.124 ± 0.03. In the case of VASYVCIGVVWV, the protein stability index is reported as 0.299 ± 0.02. VCFLCIWLYSED gave a protein stability index of 0.221 ± 0.033. VCLFFFGYWCCL was tested, and the protein stability index was 0.479 ± 0.0093. VCLFRLVVFFPV was tested, and the protein stability index was 0.222 ± 0.018. For VCLLFRFCCWFW, the protein stability index was 0.304 ± 0.01. Work on VCTFLLVSFFLS yielded a protein stability index of 0.185 ± 0.017.

Same assay, conditions: genetic background: wild type; temperature: 37 C
In the case of SLLLLSLCRFVG, the protein stability index is reported as 0.384 ± 0.013. SLPIFSGVASVR showed a protein stability index of 0.728 ± 0.011. In the case of SLSCYSFFVLAL, the protein stability index is reported as 0.51315 ± 0.00015. SLVIVLPALIFL was tested, and the protein stability index was 0.522 ± 0.014. SPAIRAILAPAG showed a protein stability index of 0.532 ± 0.0079. Work on SPLASLRFWCFC yielded a protein stability index of 0.592 ± 0.024. With SPPPLFLIVLHL the protein stability index was 0.52 ± 0.018. For SRCLALVICYRV, the protein stability index was 0.3 ± 0.0041. In the case of SRGKMTIVSNQI, the protein stability index is reported as 0.704 ± 0.028. SRGLVPMANRYC was tested, and the protein stability index was 0.42 ± 0.014. With SRPGRWRLYYVS the protein stability index was 0.54 ± 0.0037. With SRSVLLCFCWLC the protein stability index was 0.3461 ± 0.00068. With SVFCSLFLFLFY the protein stability index was 0.517 ± 0.026. SVGCCLLCFFVL gave a protein stability index of 0.5031 ± 0.0027. Sequence SWMSQFSILLTA has a protein stability index of 0.199 ± 0.04. For SYVLLQSYVSLV, the protein stability index was 0.613 ± 0.083. TCVTLRYRLTFE was tested, and the protein stability index was 0.621 ± 0.02. For TFLFPLPFLFFI, the protein stability index was 0.101 ± 0.0099. TFRPWPLHILAL showed a protein stability index of 0.201 ± 0.019. THRAVGIGLRCC was tested, and the protein stability index was 0.4005 ± 0.0016. TIRKCIIKWIKI was tested, and the protein stability index was 0.398 ± 0.024. Work on TKDFVIKKTKIS yielded a protein stability index of 0.236 ± 0.028. With TLDWKFGRGGIG the protein stability index was 0.4041 ± 0.0037. In the case of TVLGRDFALSVC, the protein stability index is reported as 0.501 ± 0.0061. TVYMVIRVIVWG showed a protein stability index of 0.154 ± 0.013. Sequence TYCFRVCAWRAN has a protein stability index of 0.396 ± 0.017. VACLRLTVYVMG gave a protein stability index of 0.204 ± 0.016. For VASYVCIGVVWV, the protein stability index was 0.456 ± 0.01. Sequence VCFLCIWLYSED has a protein stability index of 0.418 ± 0.056. For VCLFFFGYWCCL, the protein stability index was 0.53 ± 0.011. Work on VCLFRLVVFFPV yielded a protein stability index of 0.377 ± 0.014. VCLLFRFCCWFW gave a protein stability index of 0.414 ± 0.03. VCTFLLVSFFLS gave a protein stability index of 0.33 ± 0.0099.
